From patent US20220175781A1, “CD40L COMPOSITIONS AND METHODS FOR TUNABLE REGULATION” (Obsidian Therapeutics, Inc., priority 2019, published 2022)
Values belong to the molecule of their own block, whether it stands above or below them.

Legend:
[1] = molecular target: OT-001661 (MH Linker; CD40L; stop) (human) (UniProt P29965); assay: cell-based or functional assay
[2] = molecular target: OT-001668 (Linker (MH); CD40L (aa 1-261 of WT, (S110-G116) del); stop) (human) (UniProt P29965); assay: cell-based or functional assay
[3] = molecular target: OT-001669 (Linker (MH); CD40L (aa 14-261 of WT); stop) (human) (UniProt P29965); assay: cell-based or functional assay
CD40 = CD40 (UniProt P25942); assay: cell-based or functional assay
Chain of CD40 (P25942 21-277 limits assumed): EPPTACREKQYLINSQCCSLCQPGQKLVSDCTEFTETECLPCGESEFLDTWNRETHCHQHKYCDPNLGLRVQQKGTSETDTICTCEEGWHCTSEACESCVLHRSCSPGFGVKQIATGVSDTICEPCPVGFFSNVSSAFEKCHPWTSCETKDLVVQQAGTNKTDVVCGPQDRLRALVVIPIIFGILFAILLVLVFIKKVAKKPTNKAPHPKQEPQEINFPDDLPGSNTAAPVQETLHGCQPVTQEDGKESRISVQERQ

HEK-Blue™ CD40 cells = assay: HEK-Blue CD40 SEAP reporter co-culture with transduced Jurkat cells; type: cell-based; conditions: ligand 24 h (1 μM Shield-1, 50 μM TMP or 1 μM Bazedoxifene), recombinant soluble CD40L as standard
Procedure: Jurkat cells transduced with OT-001661, OT-001685, OT-001662, OT-001666, or OT-001667 were co-cultured with HEK-Blue™ CD40 cells (Invivogen, San Diego, Calif.). Cocultures were treated with ligands (1 μM Shield-1, 50 μM TMP, 1 μM Bazedoxifene (BZD) or vehicle control) for 24 hours and the secreted embryonic alkaline phosphatase (SEAP) reporter levels were measured in the media. All vehicle treated samples had background SEAP activity. Recombinant soluble CD40L was used as the standard in the experiments.

T cells (CD4+ and CD8+) = assay: Regulation of CD40L in T cells by different drug responsive domains; type: cell-based
HEK 293T cells = assay: hDHFR regulated CD40L surface expression, HEK 293T cells (flow cytometry); type: cell-based, human; conditions: 50 μM TMP 24 hours
Procedure: HEK 293T cells were transiently […] with hDHFR regulated constructs namely OT-001962, OT-001961, OT-001963 for 24 hours. Following transfection, cells were treated with 50 μM TMP for 24 hours and CD40L cell surface expression was measured using flow cytometry. […] CD40L expression in the absence of ligand was virtually undetectable.

Jurkat cells = assay: DHFR regulated CD40L expression, transduced Jurkat cells (flow cytometry); type: cell-based
Procedure: Jurkat cells were transduced with lentiviruses corresponding to OT-001662, OT-001962, OT-001961, OT-001963. 24 hours after transduction, cells were split and treated with DMSO or 50 μM TMP for another 24 hours until flow cytometry-based analysis. The results are shown in Table 37 where SR indicates stabilization ration.

[4] = test system: T cells (CD4 and CD8 positive); assay: TMP dose response of OT-001962, CD40L MFI in CD4 and CD8 positive T cells; type: cell-based
Procedure: Dose response with TMP in T cells were conducted for OT-001962. Expression of CD40L was measured at (a) day 4 after transduction, (b) after freezing and thawing the cells or (c) after freezing and thawing the cells followed by restimulation with CD3/CD28 beads.

HEK293T cells = assay: Soluble CD40L ELISA, transiently transfected HEK293T cells; type: cell-based, human; conditions: HEK293T cells
Procedure: Soluble CD40L (sCD40L) constructs OT-001672, OT-001686, OT-001673, OT-001674, OT-001677, and OT-001684 were transiently transfected into HEK293T cells. Cells were treated with one of the following ligands 1 μM Shield-1, 50 μM TMP, 1 μM Bazedoxifene (BZD) or vehicle control.
The pg/mL levels of soluble CD40L were measured by ELISA (Table 14). Recombinant soluble CD40L was used as the standard in the experiments.

HEK-Blue CD40 = HEK-Blue CD40 assay with sCD40L constructs; type: cell-based; conditions: ligand treated

CD40L levels in supernatant (shedding, ELISA) of Jurkat cells cultured 6 hours with 1.25 µg/ml hCD40-Fc; untreated 1382.06 [1]: 3600
CD40L levels in supernatant (shedding, ELISA) of Jurkat cells cultured 6 hours with 1.25 µg/ml hCD40-Fc; untreated 10 [2]: 10
CD40L levels in supernatant (shedding, ELISA) of Jurkat cells cultured 6 hours with 1.25 µg/ml hCD40-Fc; untreated 2137.69 [3]: 8440
Molecule: recombinant human CD40-Fc receptor (from UniProt P25942 21-193) (Fc fusion)

SEAP reporter of HEK-Blue CD40 cells co-cultured 24 hours with transduced Jurkat cells plus 1 µM Bazedoxifene, given as Soluble CD40L (pg/ml) against a recombinant soluble CD40L standard (CD40): 2570 pg/mL
B1: OT-001667 (Met; ER (aa 305-549 of WT, T371A, L384M, M421G, N519S, G521R, Y537S); Histidine; CD40L; stop) (ligand)
chain: MSLALSLTADQMVSALLDAEPPILYSEYDPTRPFSEASMMGLLTNLADRELVHMINWAKRVPGFVDLALHDQVHLLECAWMEILMIGLVWRSMEHPGKLLFAPNLLLDRNQGKCVEGGVEIFDMLLATSSRFRMMNLQGEEFVCLKSIILLNSGVYTFLSSTLKSLEEKDHIHRVLDKITDTLIHLMAKAGLTLQQQHQRLAQLLLILSHIRHMSSKRMEHLYSMKCKNVVPLSDLLLEMLDAHRLHMIETYNQTSPRSAATGLPISMKIFMYLLTVFLITQMIGSALFAVYLHRRLDKIEDERNLHEDFVFMKTIQRCNTGERSLSLLNCEEIKSQFEGFVKDIMLNKEETKKENSFEMQKGDQNPQIAAHVISEASSKTTSVLQWAEKGYYTMSNNLVTLENGKQLTVKRQGLYYIYAQVTFCSNREASSQAPFIASLCLKSPGRFERILLRAANTHSSAKPCGQQSIHLGGVFELQPGASVFVNVTDPSQVSHGTGFTSFGLLKL
Soluble CD40L (HEK-Blue™ CD40 cells): 2565.91 pg/mL

B2: OT-001962: hDHFR regulated CD40L construct (protein)
chain: MVGSLNCIVAVSQNMGIGKNGDLPWPPLRNEFRYFERMTTTSSVEGKQNLVIMGKKTWFSIPEKNRPLKGRINLVLSRELKEPPQGAHFLSRSLDDALKLTEHPELANKVDMVWIVGGSSVIKEAMNHPGHLKLFVTRIMQDFESDTFFPEIDLEKYKLLPEYPGVLSDVQEEKGIKYKFEVYEKNDHMIETYNQTSPRSAATGLPISMKIFMYLLTVFLITQMIGSALFAVYLHRRLDKIEDERNLHEDFVFMKTIQRCNTGERSLSLLNCEEIKSQFEGFVKDIMLNKEETKKENSFEMQKGDQNPQIAAHVISEASSKTTSVLQWAEKGYYTMSNNLVTLENGKQLTVKRQGLYYIYAQVTFCSNREASSQAPFIASLCLKSPGRFERILLRAANTHSSAKPCGQQSIHLGGVFELQPGASVFVNVTDPSQVSHGTGFTSFGLLKL
CD40L positive (T cells (CD4+ and CD8+); All Cells, 100 uM TMP): 71.6%
MFI (T cells (CD4+ and CD8+); All Cells, 100 uM TMP): 1109
CD40L positive (T cells (CD4+ and CD8+); All Cells, DMSO): 46.5%
MFI (T cells (CD4+ and CD8+); All Cells, DMSO): 434
CD40L positive (T cells (CD4+ and CD8+); CD4+, 100 uM TMP): 83.5%
MFI (T cells (CD4+ and CD8+); CD4+, 100 uM TMP): 1468
CD40L positive (T cells (CD4+ and CD8+); CD4+, DMSO): 58.3%
MFI (T cells (CD4+ and CD8+); CD4+, DMSO): 548
CD40L positive (T cells (CD4+ and CD8+); CD8+, 100 uM TMP): 32.1%
MFI (T cells (CD4+ and CD8+); CD8+, 100 uM TMP): 455
CD40L positive (T cells (CD4+ and CD8+); CD8+, DMSO): 4.1%
MFI (T cells (CD4+ and CD8+); CD8+, DMSO): 157
% CD40L (HEK 293T cells): 14.3%
stabilization ratio, ranking among the hDHFR constructs (Jurkat cells; 50 μM TMP versus DMSO): highest stabilization ratio
TMP dependent regulation (Jurkat cells; 50 μM TMP versus DMSO 24 hours): strong TMP dependent regulation
% CD40L expression (Jurkat cells; TMP (50 μM)): 50%
SR (Jurkat cells; TMP (50 μM) versus Vehicle): 16.7
% CD40L expression (Jurkat cells; Vehicle (DMSO)): 3%
CD40L expression (MFI) ([4]; CD4+, Day 4, TMP 0.1 nM): 388
CD40L expression (MFI) ([4]; CD4+, Day 4, TMP 1 nM): 396
CD40L expression (MFI) ([4]; CD4+, Day 4, TMP 10 nM): 405
CD40L expression (MFI) ([4]; CD4+, Day 4, TMP 100 nM): 388
CD40L expression (MFI) ([4]; CD4+, Day 4, TMP 1000 nM): 480
CD40L expression (MFI) ([4]; CD4+, Day 4, TMP 10000 nM): 1067
CD40L expression (MFI) ([4]; CD4+, Day 4, TMP 100000 nM): 5917
CD40L expression (MFI) ([4]; CD4+, Post Thaw, TMP 0.1 nM): 153
CD40L expression (MFI) ([4]; CD4+, Post Thaw, TMP 1 nM): 156
CD40L expression (MFI) ([4]; CD4+, Post Thaw, TMP 10 nM): 158
CD40L expression (MFI) ([4]; CD4+, Post Thaw, TMP 100 nM): 165
CD40L expression (MFI) ([4]; CD4+, Post Thaw, TMP 1000 nM): 166
CD40L expression (MFI) ([4]; CD4+, Post Thaw, TMP 10000 nM): 186
CD40L expression (MFI) ([4]; CD4+, Post Thaw, TMP 100000 nM): 395
CD40L expression (MFI) ([4]; CD4+, Restim, TMP 0.1 nM): 631
CD40L expression (MFI) ([4]; CD4+, Restim, TMP 1 nM): 647
CD40L expression (MFI) ([4]; CD4+, Restim, TMP 10 nM): 645
CD40L expression (MFI) ([4]; CD4+, Restim, TMP 100 nM): 644
CD40L expression (MFI) ([4]; CD4+, Restim, TMP 1000 nM): 737
CD40L expression (MFI) ([4]; CD4+, Restim, TMP 10000 nM): 1382
CD40L expression (MFI) ([4]; CD4+, Restim, TMP 100000 nM): 6275
CD40L expression (MFI) ([4]; CD8+, Day 4, TMP 0.1 nM): 181
CD40L expression (MFI) ([4]; CD8+, Day 4, TMP 1 nM): 178
CD40L expression (MFI) ([4]; CD8+, Day 4, TMP 10 nM): 182
CD40L expression (MFI) ([4]; CD8+, Day 4, TMP 100 nM): 182
CD40L expression (MFI) ([4]; CD8+, Day 4, TMP 1000 nM): 204
CD40L expression (MFI) ([4]; CD8+, Day 4, TMP 10000 nM): 393
CD40L expression (MFI) ([4]; CD8+, Day 4, TMP 100000 nM): 1941
CD40L expression (MFI) ([4]; CD8+, Post Thaw, TMP 0.1 nM): 111
CD40L expression (MFI) ([4]; CD8+, Post Thaw, TMP 1 nM): 116
CD40L expression (MFI) ([4]; CD8+, Post Thaw, TMP 10 nM): 114
CD40L expression (MFI) ([4]; CD8+, Post Thaw, TMP 100 nM): 117
CD40L expression (MFI) ([4]; CD8+, Post Thaw, TMP 1000 nM): 118
CD40L expression (MFI) ([4]; CD8+, Post Thaw, TMP 10000 nM): 129
CD40L expression (MFI) ([4]; CD8+, Post Thaw, TMP 100000 nM): 236
CD40L expression (MFI) ([4]; CD8+, Restim, TMP 0.1 nM): 254
CD40L expression (MFI) ([4]; CD8+, Restim, TMP 1 nM): 257
CD40L expression (MFI) ([4]; CD8+, Restim, TMP 10 nM): 258
CD40L expression (MFI) ([4]; CD8+, Restim, TMP 100 nM): 255
CD40L expression (MFI) ([4]; CD8+, Restim, TMP 1000 nM): 258
CD40L expression (MFI) ([4]; CD8+, Restim, TMP 10000 nM): 382
CD40L expression (MFI) ([4]; CD8+, Restim, TMP 100000 nM): 1185

B3: OT-001673: Soluble CD40L (sCD40L) construct (protein)
chain: GSSGISLIAALAVDYVIGMENAMPWNLPADLAWFKRNTLNKPVIMGRHTWESIGRPLPGRKNIILSSQPGTDDRVTWVKSVDEAIAACGDVPEIMVIGGGRVIEQFLPKAQKLYLTHIDAEVEGDTHFPDYEPDDWESVFSEFHDADAQNSHSYCFEILERRGSMHMQKGDQNPQIAAHVISEASSKTTSVLQWAEKGYYTMSNNLVTLENGKQLTVKRQGLYYIYAQVTFCSNREASSQAPFIASLCLKSPGRFERILLRAANTHSSAKPCGQQSIHLGGVFELQPGASVFVNVTDPSQVSHGTGFTSFGLLKL
ligand dependent regulation of soluble CD40L levels (HEK293T cells; ELISA): ligand dependent regulation
functionality in HEK-Blue CD40 assay (HEK-Blue CD40): higher functionality

B4: OT-001672: Soluble CD40L (sCD40L) construct (protein)
chain: GSMHMQKGDQNPQIAAHVISEASSKTTSVLQWAEKGYYTMSNNLVTLENGKQLTVKRQGLYYIYAQVTFCSNREASSQAPFIASLCLKSPGRFERILLRAANTHSSAKPCGQQSIHLGGVFELQPGASVFVNVTDPSQVSHGTGFTSFGLLKL
Stabilization Ratio (HEK293T cells; soluble CD40L +Ligand versus Vehicle): 3.3
functionality in HEK-Blue CD40 assay (HEK-Blue CD40): higher functionality
